Measured values from article PMC9482650, “Quantitative fragmentomics allow affinity mapping of interactomes” (Nature Communications, 2022).

T1: APBA1_2, Q02410
T1 sequence (Q02410 742-832, limits assumed, looked up): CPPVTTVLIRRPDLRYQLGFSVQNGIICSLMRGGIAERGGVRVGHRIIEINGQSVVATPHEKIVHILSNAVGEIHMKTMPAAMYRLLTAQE

T2: ARHGEF11, O15085
T2 sequence (O15085 42-136, limits assumed, looked up): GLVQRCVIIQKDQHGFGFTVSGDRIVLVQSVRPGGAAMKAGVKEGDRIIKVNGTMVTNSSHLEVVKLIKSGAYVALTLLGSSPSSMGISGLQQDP

T3: GRIP1_2, Q9Y3R0
T3 sequence (Q9Y3R0 145-248, limits assumed, looked up): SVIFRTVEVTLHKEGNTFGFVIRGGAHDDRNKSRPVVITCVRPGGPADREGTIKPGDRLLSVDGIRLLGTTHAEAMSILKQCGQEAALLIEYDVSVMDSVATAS

T4: GRIP1_3, Q9Y3R0
T4 sequence (Q9Y3R0 247-346, limits assumed, looked up): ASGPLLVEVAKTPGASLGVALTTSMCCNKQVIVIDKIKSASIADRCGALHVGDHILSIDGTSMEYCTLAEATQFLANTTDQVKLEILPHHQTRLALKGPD

T5: LRRC7, Q96NW7
T5 sequence (Q96NW7 1440-1537, limits assumed, looked up): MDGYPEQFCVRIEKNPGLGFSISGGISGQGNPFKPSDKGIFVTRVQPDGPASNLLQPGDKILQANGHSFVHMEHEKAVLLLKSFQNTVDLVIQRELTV

T6: MPDZ_12, O75970
T6 sequence (O75970 1857-1958, limits assumed, looked up): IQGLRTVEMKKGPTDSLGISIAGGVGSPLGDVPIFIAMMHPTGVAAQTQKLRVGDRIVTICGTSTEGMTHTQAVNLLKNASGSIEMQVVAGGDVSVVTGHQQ

T7: PDZRN3_1, Q9UPQ7
T7 sequence (Q9UPQ7 244-349, limits assumed, looked up): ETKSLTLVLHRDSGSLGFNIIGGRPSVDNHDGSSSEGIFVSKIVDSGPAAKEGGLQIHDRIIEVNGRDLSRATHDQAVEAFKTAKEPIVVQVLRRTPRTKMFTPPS

T8: PTPN13_1, Q12923
T8 sequence (Q12923 1088-1188, limits assumed, looked up): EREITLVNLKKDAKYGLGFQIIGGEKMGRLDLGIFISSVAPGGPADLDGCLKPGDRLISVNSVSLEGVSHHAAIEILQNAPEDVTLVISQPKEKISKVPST

T9: RADIL, Q96JH8
T9 sequence (Q96JH8 971-1071, limits assumed, looked up): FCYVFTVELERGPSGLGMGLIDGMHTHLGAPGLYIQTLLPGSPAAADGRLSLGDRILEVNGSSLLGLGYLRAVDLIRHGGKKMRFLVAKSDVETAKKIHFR

T10: RHPN1, Q8TCX5
T10 sequence (Q8TCX5 508-602, limits assumed, looked up): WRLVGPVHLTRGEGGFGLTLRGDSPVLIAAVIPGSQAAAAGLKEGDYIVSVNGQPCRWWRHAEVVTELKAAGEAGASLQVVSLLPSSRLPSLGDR

T11: SNTB1, Q13884
T11 sequence (Q13884 107-205, limits assumed, looked up): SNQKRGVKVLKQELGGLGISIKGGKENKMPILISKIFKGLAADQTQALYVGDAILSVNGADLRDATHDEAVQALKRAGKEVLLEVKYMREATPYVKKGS

T12: SNTG2, Q9NY99
T12 sequence (Q9NY99 68-166, limits assumed, looked up): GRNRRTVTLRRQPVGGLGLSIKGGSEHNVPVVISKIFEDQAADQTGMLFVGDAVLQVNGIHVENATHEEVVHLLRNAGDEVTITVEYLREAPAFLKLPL


Assays:
Test in all cases: holdup assay
Parameters in all cases: key: below the threshold = too weak to quantify, mostly under pKd 3.1 to 4
Settings in all cases: plain residues with an end cap or a label only (N-terminal biotin on a linker: ado-ado)
[1] = molecular target: T1, APBA1_2, Q02410
[2] = molecular target: T2, ARHGEF11, O15085
[3] = molecular target: ARHGEF12, Q9NZN5-2
Chain of ARHGEF12, Q9NZN5-2 (Q9NZN5 other isoform, or with tags, fused parts or gaps): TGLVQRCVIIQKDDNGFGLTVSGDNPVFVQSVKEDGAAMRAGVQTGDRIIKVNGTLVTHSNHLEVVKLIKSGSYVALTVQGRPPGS

[4] = molecular target: CASK, O14936
Chain of CASK, O14936 (O14936 487-570): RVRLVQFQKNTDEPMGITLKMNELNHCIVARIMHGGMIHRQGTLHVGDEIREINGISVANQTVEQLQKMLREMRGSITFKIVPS

[5] = molecular target: DLG1_1, Q12959
[6] = molecular target: DLG2_2, Q15700
Chain of DLG2_2, Q15700 (Q15700 189-283): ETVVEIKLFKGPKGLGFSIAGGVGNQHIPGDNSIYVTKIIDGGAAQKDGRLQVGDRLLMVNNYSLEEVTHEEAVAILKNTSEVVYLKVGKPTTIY

[7] = molecular target: DLG4_2, P78352
Chain of DLG4_2, P78352 (P78352 155-259): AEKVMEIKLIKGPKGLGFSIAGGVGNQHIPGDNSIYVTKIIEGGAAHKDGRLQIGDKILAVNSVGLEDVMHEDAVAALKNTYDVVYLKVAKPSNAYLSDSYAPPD

[8] = molecular target: DLG5_1, Q8TDM6
Chain of DLG5_1, Q8TDM6 (Q8TDM6 617-713): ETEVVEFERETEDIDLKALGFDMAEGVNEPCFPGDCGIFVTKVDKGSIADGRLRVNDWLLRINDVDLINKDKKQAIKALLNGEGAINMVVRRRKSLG

[9] = molecular target: T3, GRIP1_2, Q9Y3R0
[10] = molecular target: T4, GRIP1_3, Q9Y3R0
[11] = molecular target: Inadl_10, Q8NI35
Chain of Inadl_10, Q8NI35 (Q8NI35 1673-1763): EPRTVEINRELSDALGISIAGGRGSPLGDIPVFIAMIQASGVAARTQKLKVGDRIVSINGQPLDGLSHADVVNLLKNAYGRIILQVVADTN

[12] = molecular target: Inadl_4, Q8NI35
Chain of Inadl_4, Q8NI35 (Q8NI35 547-651): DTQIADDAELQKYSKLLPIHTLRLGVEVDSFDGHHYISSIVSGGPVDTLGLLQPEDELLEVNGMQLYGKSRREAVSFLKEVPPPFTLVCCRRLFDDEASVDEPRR

[13] = molecular target: T5, LRRC7, Q96NW7
[14] = molecular target: MAGI2_3, Q86UL8
Chain of MAGI2_3, Q86UL8 (Q86UL8 600-682): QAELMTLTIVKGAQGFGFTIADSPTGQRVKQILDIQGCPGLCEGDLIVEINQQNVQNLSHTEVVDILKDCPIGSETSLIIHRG

[15] = molecular target: MAGI2_5, Q86UL8
Chain of MAGI2_5, Q86UL8 (Q86UL8 915-1017): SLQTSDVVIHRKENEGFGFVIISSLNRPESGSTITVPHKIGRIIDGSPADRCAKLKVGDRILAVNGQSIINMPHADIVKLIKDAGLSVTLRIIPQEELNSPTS

[16] = molecular target: T6, MPDZ_12, O75970
[17] = molecular target: NHERF4_2, Q86UT5
Chain of NHERF4_2, Q86UT5 (Q86UT5 220-308): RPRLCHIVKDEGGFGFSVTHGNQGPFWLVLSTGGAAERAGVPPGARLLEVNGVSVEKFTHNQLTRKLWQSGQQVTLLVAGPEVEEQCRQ

[18] = molecular target: PARD3_3, Q8TEW0
Chain of PARD3_3, Q8TEW0 (Q8TEW0 582-685): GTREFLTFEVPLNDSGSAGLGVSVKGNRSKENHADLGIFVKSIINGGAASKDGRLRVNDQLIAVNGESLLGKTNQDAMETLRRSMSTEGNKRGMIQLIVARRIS

[19] = molecular target: T7, PDZRN3_1, Q9UPQ7
[20] = molecular target: T8, PTPN13_1, Q12923
[21] = molecular target: T9, RADIL, Q96JH8
[22] = molecular target: T10, RHPN1, Q8TCX5
[23] = molecular target: SCRIB_1, Q14160
Chain of SCRIB_1, Q14160 (Q14160 718-814): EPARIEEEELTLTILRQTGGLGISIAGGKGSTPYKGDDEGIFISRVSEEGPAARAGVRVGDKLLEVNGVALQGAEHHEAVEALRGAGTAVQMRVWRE

[24] = molecular target: SCRIB_3, Q14160
Chain of SCRIB_3, Q14160 (Q14160 999-1103): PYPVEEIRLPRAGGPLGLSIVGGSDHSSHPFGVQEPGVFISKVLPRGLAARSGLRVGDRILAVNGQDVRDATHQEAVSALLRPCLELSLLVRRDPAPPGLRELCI

[25] = molecular target: T11, SNTB1, Q13884
[26] = molecular target: T12, SNTG2, Q9NY99

pKd [1] | pKd [2] | pKd [3] | pKd [4] | pKd [5] | pKd [6] | pKd [7] | pKd [8] | pKd [9] | pKd [10] | pKd [11] | pKd [12] | pKd [13] | pKd [14] | pKd [15] | pKd [16] | pKd [17] | pKd [18] | pKd [19] | pKd [20] | Binder | other results
below the threshold | below the threshold | 3.5 | below the threshold | below the threshold | below the threshold | below the threshold | below the threshold | below the threshold | below the threshold | below the threshold | below the threshold | below the threshold | below the threshold | below the threshold | below the threshold | below the threshold | below the threshold | below the threshold | below the threshold | IKAIVDLTGL [TRAF2, Q12933] | pKd [21]: below the threshold; pKd [22]: below the threshold; pKd [23]: below the threshold; pKd [24]: below the threshold; pKd [25]: below the threshold; pKd [26]: below the threshold
below the threshold | below the threshold | 3.64 | below the threshold | below the threshold | below the threshold | below the threshold | below the threshold | below the threshold | below the threshold | below the threshold | below the threshold | below the threshold | below the threshold | below the threshold | below the threshold | below the threshold | below the threshold | below the threshold | 3.63 | EKKTLIGIKL [GOT1L1, Q8NHS2] | pKd [21]: below the threshold; pKd [22]: below the threshold; pKd [23]: below the threshold; pKd [24]: below the threshold; pKd [25]: below the threshold; pKd [26]: below the threshold
3.65 | 3.78 | 3.63 | below the threshold | below the threshold | below the threshold | 3.48 | 3.48 | below the threshold | below the threshold | below the threshold | below the threshold | 3.92 | 3.55 | below the threshold | below the threshold | 3.66 | 4.11 | 3.7 | below the threshold | PRAEAEDSFL [PDGFRB, P09619] | pKd [21]: below the threshold; pKd [22]: 4.23; pKd [23]: 3.76; pKd [24]: 4.06; pKd [25]: 3.64; pKd [26]: below the threshold

More lines, now with the values behind:

Binder | pKd [1] | pKd [2] | pKd [3] | pKd [4] | pKd [5] | pKd [6] | pKd [7] | pKd [8] | pKd [9] | pKd [10] | pKd [11] | pKd [12] | pKd [13] | pKd [14] | pKd [15] | pKd [16] | pKd [17] | pKd [18] | pKd [19] | pKd [20] | other results
VKPQVSESKL [ACOT8, O14734] | below the threshold | below the threshold | 4.03 | below the threshold | below the threshold | below the threshold | below the threshold | below the threshold | below the threshold | below the threshold | below the threshold | below the threshold | below the threshold | below the threshold | below the threshold | below the threshold | below the threshold | below the threshold | 3.68 | below the threshold | pKd [21]: below the threshold; pKd [22]: 4.07; pKd [23]: 4.32; pKd [24]: 4.24; pKd [25]: 3.85; pKd [26]: 4.19
EALLQMESVA [CAVIN3, Q969G5] | 3.5 | below the threshold | 3.63 | below the threshold | below the threshold | below the threshold | below the threshold | below the threshold | below the threshold | below the threshold | below the threshold | below the threshold | below the threshold | below the threshold | below the threshold | below the threshold | below the threshold | below the threshold | below the threshold | below the threshold | pKd [21]: below the threshold; pKd [22]: 3.69; pKd [23]: 3.56; pKd [24]: below the threshold; pKd [25]: below the threshold; pKd [26]: below the threshold
